Assay results taken from PMC6076269, “Structure and nucleic acid binding properties of KOW domains 4 and 6–7 of human transcription elongation factor DSIF”.

B1: dsDNA2 (dsDNA)
DNA 1: GAAAATTGGGTAAG
DNA 2: CTTACCCAATTTTC
B2: dsDNA1 (dsDNA)
DNA 1: CTTATTGAATTA
DNA 2: TAATTCAATAAG

Target: hSpt5 KOW4 (S522-G647) (Homo sapiens, UniProt O00267 522-647)
Assay: fluorescence anisotropy; 50 nM nucleic acid; Fluorescence anisotropy: 25 mM Tris/HCl pH 7.0, 50 mM NaCl, 25 C (buffer printed for duplex annealing, named fluorescence buffer); NMR with Rpb4/7 (Fig 7): 50 mM Na phosphate pH 7.0, 50 mM NaCl, 1 mM DTT, 298 K
Settings: protein: recombinant, tags: His6-GB1 removed by TEV
[1] = label: 5' 6-FAM on strand 1, blunt

| Binder | Kd (label: 5' 6-FAM) | Kd [1] |
| --- | --- | --- |
| GAAAATTGGGTAAG (ssDNA) [ssDNA2] | 24.5 ± 3.2 µM | – |
| B1 | – | 41.2 ± 9 µM |
| CTTATTGAATTA (ssDNA) [ssDNA1] | 12.2 ± 0.6 µM | – |
| B2 | – | 20.1 ± 0.4 µM |
| GGCGGUAGCGUG (ssRNA) [ssRNA] | 39.5 ± 7.4 µM | – |
